Our source for the cell (luciferase assay inhibitory rate (%)) values is patent publication US20220282255A1.

This experiment deals with Recombinant Human TGF-β1, manufactured by Peprotech (human) (UniProt P01137). In words: cell-based or functional assay.
Chain of Recombinant Human TGF-β1, manufactured by Peprotech (human) (P01137 279-390 limits assumed): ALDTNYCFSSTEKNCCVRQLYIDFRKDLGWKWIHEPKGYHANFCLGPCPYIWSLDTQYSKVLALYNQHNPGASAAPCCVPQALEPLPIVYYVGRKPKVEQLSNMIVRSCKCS

Turning to known TGF-β antibody (R&D, MAB1835), the cell (luciferase assay inhibitory rate (%)) came to 100%.
